# Results published in patent US20110002963A1 (IMMATICS BIOTECHNOLOGIES, published 2011).
# Target: T1, MHC molecule coded by the HLA-A*0201 allele (recombinant HLA-A*0201 heavy chain refolded with beta-2 … (human))
# Assay: ELISA-based MHC refolding assay
row,Binder,binding result
1,ALWAWPSEL (also called IMA-BCA-002) [BCA-002],binds
2,LTFGDVVAV (also called IMA-FABP7-001) [FABP7-001],binds
3,GLWHHQTEV (also called IMA-NRCAM-001) [NRCAM-001],binds
4,KIQEILTQV (also called IMA-IGF2BP3-001) [IGF2BP3-001],binds

# Now from value to binder:
row,binding result,Binder
1,binds,SLWAGVVVL (also called IMA-CHI-001) [CHI-001]
2,binds,AIIDGVESV (also called IMA-PTP-003) [PTP-003]
3,binds,NLDTLMTYV (also called IMA-NLGN4X-001) [NLGN4X-001]
4,binds,KVFAGIPTV (also called IMA-PTP-005) [PTP-005]
5,binds,AMTQLLAGV (also called IMA-TNC-001) [TNC-001]

# Target: T1, MHC molecule coded by the HLA-A*0201 …
# Assay: tetramer production / HLA-A*0201 refolding with peptide
row,binding result,Binder
1,no binding,TFSYVDPVITSISPKYG (also called IMA-MET-005; full-length MET-005) [MET-005]

# Target: T1, MHC molecule coded by the HLA-A*0201 …
# Assay: ELISA-based MHC refolding assay, recombinant HLA-A*0201 heavy chain + b2m + graded peptide
row,Kd,Binder
1,2.05 nM,TMLARLASA (also called IMA-CSP-001) [CSP-001]
2,0.14 nM,YVDPVITSI (also called MET-005 derived MET-001) [MET-001]
